{"source": "patent US20240150411A1", "key": {"[1]": {"target": "DS-Cav1-foldon-I53-50 nanostructure, 100% valency (respiratory syncytial virus (RSV))", "experiment": "SPR, D25 immobilised, antigen at 50 nM heat-stressed at 70 °C for 1 h (FIG. 10)"}, "[2]": {"target": "DS-Cav1-foldon-I53-50A trimer (respiratory syncytial virus (RSV))", "experiment": "SPR, D25 immobilised, antigen at 50 nM heat-stressed at 70 °C for 1 h (FIG. 10)"}}}
{"substance": "D25 monoclonal antibody", "values": [{"measurement": "percent of binding signal retained after 70 °C for 1 hour", "setting": "[1]", "result": 80, "unit": "%"}, {"measurement": "percent of binding signal retained after 70 °C for 1 hour", "setting": "[2]", "result": 50, "unit": "%"}]}
